# Data published in IntAct's records for PubMed 31515488.
# B1: Ribosome-recycling factor, mitochondrial (Homo sapiens), Q96E11 (parent)
# chain: MALGLKCFRMVHPTFRNYLAASIRPVSEVTLKTVHERQHGHRQYMAYSAVPVRHFATKKAKAKGKGQSQTRVNINAALVEDIINLEEVNEEMKSVIEALKDNFNKTLNIRTSPGSLDKIAVVTADGKLALNQISQISMKSPQLILVNMASFPECTAAAIKAIRESGMNLNPEVEGTLIRVPIPQVTREHREMLVKLAKQNTNKAKDSLRKVRTNSMNKLKKSKDTVSEDTIRLIEKQISQMADDTVAELDRHLAVKTKELLG
# partner: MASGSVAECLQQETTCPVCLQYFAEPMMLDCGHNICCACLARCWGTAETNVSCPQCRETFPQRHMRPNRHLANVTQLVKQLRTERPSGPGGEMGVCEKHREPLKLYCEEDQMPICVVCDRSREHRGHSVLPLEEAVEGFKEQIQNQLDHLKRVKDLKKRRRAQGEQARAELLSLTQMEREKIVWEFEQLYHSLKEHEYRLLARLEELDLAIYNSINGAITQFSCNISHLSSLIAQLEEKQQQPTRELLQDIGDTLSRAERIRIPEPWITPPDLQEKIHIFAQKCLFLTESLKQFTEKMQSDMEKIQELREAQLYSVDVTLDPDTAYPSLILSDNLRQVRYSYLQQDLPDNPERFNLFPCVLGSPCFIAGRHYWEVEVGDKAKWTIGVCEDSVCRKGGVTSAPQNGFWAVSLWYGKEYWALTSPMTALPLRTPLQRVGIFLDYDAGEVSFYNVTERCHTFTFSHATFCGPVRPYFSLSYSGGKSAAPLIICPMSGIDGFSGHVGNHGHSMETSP
# B2: Rieske domain-containing protein (Homo sapiens), Q8TAC1 (parent)
# chain: MNLDGSAQDPEKREYSSVCVGREDDIKKSERMTAVVHDREVVIFYHKGEYHAMDIRCYHSGGPLHLGDIEDFDGRPCIVCPWHKYKITLATGEGLYQSINPKDPSAKPKWCSKGIKQRIHTVTVDNGNIYVTLSNEPFKCDSDFYATGDFKVIKSSS
# partner: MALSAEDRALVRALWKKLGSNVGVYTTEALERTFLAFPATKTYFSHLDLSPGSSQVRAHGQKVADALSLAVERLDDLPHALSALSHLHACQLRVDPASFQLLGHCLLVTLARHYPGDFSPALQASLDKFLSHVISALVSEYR
# B3: Melanoma-associated antigen 4 (Homo sapiens), P43358 (parent)
# chain: MSSEQKSQHCKPEEGVEAQEEALGLVGAQAPTTEEQEAAVSSSSPLVPGTLEEVPAAESAGPPQSPQGASALPTTISFTCWRQPNEGSSSQEEEGPSTSPDAESLFREALSNKVDELAHFLLRKYRAKELVTKAEMLERVIKNYKRCFPVIFGKASESLKMIFGIDVKEVDPASNTYTLVTCLGLSYDGLLGNNQIFPKTGLLIIVLGTIAMEGDSASEEEIWEELGVMGVYDGREHTVYGEPRKLLTQDWVQENYLEYRQVPGSNPARYEFLWGPRALAETSYVKVLEHVVRVNARVRIAYPSLREAALLEEEEGV
# partner: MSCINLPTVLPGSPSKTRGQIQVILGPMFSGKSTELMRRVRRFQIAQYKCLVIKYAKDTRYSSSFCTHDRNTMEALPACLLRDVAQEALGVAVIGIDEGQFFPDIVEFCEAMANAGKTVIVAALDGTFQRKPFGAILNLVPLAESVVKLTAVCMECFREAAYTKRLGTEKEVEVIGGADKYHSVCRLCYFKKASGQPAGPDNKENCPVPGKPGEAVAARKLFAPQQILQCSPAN
# B4: L-fucose dehydrogenase (Homo sapiens), Q9BPX1 (parent)
# chain: MATGTRYAGKVVVVTGGGRGIGAGIVRAFVNSGARVVICDKDESGGRALEQELPGAVFILCDVTQEDDVKTLVSETIRRFGRLDCVVNNAGHHPPPQRPEETSAQGFRQLLELNLLGTYTLTKLALPYLRKSQGNVINISSLVGAIGQAQAVPYVATKGAVTAMTKALALDESPYGVRVNCISPGNIWTPLWEELAALMPDPRATIREGMLAQPLGRMGQPAEVGAAAVFLASEANFCTGIELLVTGGAELGYGCKASRSTPVDAPDIPS
# Variants of: B1
# Conditions: with tri27_human TRIM27, P14373
row,Variant,effect of a mutation on the interaction
1,MALGLKCFRMVHPTFRNYLAASIRPVSEVTLKTVHERQHGHRQYMAYSAVPVRHFATKKAKAKGKGQSQTRVNINAALVEDIINLEEVNEEMKSVIEALKDNFNKTLNIRTSPGSLDKIAVVTADGKLALNQISQISMKSPQLILVNMASFPECTAAAIKAIRESGMNLNPEVEGTLIRVPIPQVTREHREMLVKLAKQNTNKAKDSLRKVRTNSVNKLKKSKDTVSEDTIRLIEKQISQMADDTVAELDRHLAVKTKELLG [M216V],with no effect

# Variants of: B2
# Conditions: with hbat_human HBQ1, P09105
row,Variant,effect of a mutation on the interaction
1,D38A,disrupting interaction strength

# Variants of: B3
# Conditions: with kith_human TK1, P04183
row,Variant,effect of a mutation on the interaction
1,MSSEQKSQHCKPEEGVEAQEEALGLVGAQAPTTEEQEAAVFSSSPLVPGTLEEVPAAESAGPPQSPQGASALPTTISFTCWRQPNEGSSSQEEEGPSTSPDAESLFREALSNKVDELAHFLLRKYRAKELVTKAEMLERVIKNYKRCFPVIFGKASESLKMIFGIDVKEVDPASNTYTLVTCLGLSYDGLLGNNQIFPKTGLLIIVLGTIAMEGDSASEEEIWEELGVMGVYDGREHTVYGEPRKLLTQDWVQENYLEYRQVPGSNPARYEFLWGPRALAETSYVKVLEHVVRVNARVRIAYPSLREAALLEEEEGV [S41F],with no effect

# Variants of: B4
# Conditions: with psa1_human PSMA1, P25786
# psa1_human PSMA1, P25786, sequence (P25786 whole entry): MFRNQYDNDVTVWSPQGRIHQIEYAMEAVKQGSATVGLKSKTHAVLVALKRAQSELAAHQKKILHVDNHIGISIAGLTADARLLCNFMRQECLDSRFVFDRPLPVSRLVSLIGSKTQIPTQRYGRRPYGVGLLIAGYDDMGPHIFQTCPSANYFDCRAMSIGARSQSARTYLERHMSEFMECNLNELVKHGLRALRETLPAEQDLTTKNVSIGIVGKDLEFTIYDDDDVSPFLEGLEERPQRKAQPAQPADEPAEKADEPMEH
row,Variant,effect of a mutation on the interaction
1,MATGTRYAGKVVVVTGGGRGIGAGIVRAFVDSGARVVICDKDESGGRALEQELPGAVFILCDVTQEDDVKTLVSETIRRFGRLDCVVNNAGHHPPPQRPEETSAQGFRQLLELNLLGTYTLTKLALPYLRKSQGNVINISSLVGAIGQAQAVPYVATKGAVTAMTKALALDESPYGVRVNCISPGNIWTPLWEELAALMPDPRATIREGMLAQPLGRMGQPAEVGAAAVFLASEANFCTGIELLVTGGAELGYGCKASRSTPVDAPDIPS [N31D],with no effect
2,MATGTRYAGKVVVVTWGGRGIGAGIVRAFVNSGARVVICDKDESGGRALEQELPGAVFILCDVTQEDDVKTLVSETIRRFGRLDCVVNNAGHHPPPQRPEETSAQGFRQLLELNLLGTYTLTKLALPYLRKSQGNVINISSLVGAIGQAQAVPYVATKGAVTAMTKALALDESPYGVRVNCISPGNIWTPLWEELAALMPDPRATIREGMLAQPLGRMGQPAEVGAAAVFLASEANFCTGIELLVTGGAELGYGCKASRSTPVDAPDIPS [G16W],with no effect

# Variants of: B4
# Conditions: with sr1ip_human SREK1IP1, Q8N9Q2
# sr1ip_human SREK1IP1, Q8N9Q2, sequence (Q8N9Q2 whole entry): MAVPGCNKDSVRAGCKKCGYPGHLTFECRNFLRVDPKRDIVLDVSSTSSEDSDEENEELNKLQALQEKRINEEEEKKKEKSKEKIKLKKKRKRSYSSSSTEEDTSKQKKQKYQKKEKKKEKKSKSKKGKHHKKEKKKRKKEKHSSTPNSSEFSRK
row,Variant,effect of a mutation on the interaction
1,MATGTRYAGKVVVVTGGGRGIGAGIVRAFVDSGARVVICDKDESGGRALEQELPGAVFILCDVTQEDDVKTLVSETIRRFGRLDCVVNNAGHHPPPQRPEETSAQGFRQLLELNLLGTYTLTKLALPYLRKSQGNVINISSLVGAIGQAQAVPYVATKGAVTAMTKALALDESPYGVRVNCISPGNIWTPLWEELAALMPDPRATIREGMLAQPLGRMGQPAEVGAAAVFLASEANFCTGIELLVTGGAELGYGCKASRSTPVDAPDIPS [N31D],with no effect

# Variants of: B4
# Conditions: with ntaq1_human NTAQ1, Q96HA8
row,Variant,effect of a mutation on the interaction
1,MATGTRYAGKVVVVTGGGRGIGAGIVRAFVDSGARVVICDKDESGGRALEQELPGAVFILCDVTQEDDVKTLVSETIRRFGRLDCVVNNAGHHPPPQRPEETSAQGFRQLLELNLLGTYTLTKLALPYLRKSQGNVINISSLVGAIGQAQAVPYVATKGAVTAMTKALALDESPYGVRVNCISPGNIWTPLWEELAALMPDPRATIREGMLAQPLGRMGQPAEVGAAAVFLASEANFCTGIELLVTGGAELGYGCKASRSTPVDAPDIPS [N31D],with no effect

# Variants of: B4
# Conditions: with phf1_human PHF1, O43189
# phf1_human PHF1, O43189, sequence (O43189 whole entry): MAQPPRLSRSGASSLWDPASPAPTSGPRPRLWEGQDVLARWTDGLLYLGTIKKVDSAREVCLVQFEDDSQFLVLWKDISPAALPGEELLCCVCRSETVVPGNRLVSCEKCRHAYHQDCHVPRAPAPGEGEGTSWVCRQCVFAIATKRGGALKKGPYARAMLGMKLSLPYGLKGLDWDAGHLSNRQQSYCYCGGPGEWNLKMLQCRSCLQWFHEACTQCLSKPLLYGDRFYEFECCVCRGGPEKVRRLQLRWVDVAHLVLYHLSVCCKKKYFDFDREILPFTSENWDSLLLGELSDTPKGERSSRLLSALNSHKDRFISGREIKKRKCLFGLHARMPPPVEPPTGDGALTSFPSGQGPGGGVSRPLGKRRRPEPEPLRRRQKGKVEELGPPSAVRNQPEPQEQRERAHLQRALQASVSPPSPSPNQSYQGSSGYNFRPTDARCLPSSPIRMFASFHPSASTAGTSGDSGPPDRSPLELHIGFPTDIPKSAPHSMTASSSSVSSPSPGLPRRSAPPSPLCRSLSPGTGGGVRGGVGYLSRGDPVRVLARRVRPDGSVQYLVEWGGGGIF
row,Variant,effect of a mutation on the interaction
1,MATGTRYAGKVVVVTGGGRGIGAGIVRAFVDSGARVVICDKDESGGRALEQELPGAVFILCDVTQEDDVKTLVSETIRRFGRLDCVVNNAGHHPPPQRPEETSAQGFRQLLELNLLGTYTLTKLALPYLRKSQGNVINISSLVGAIGQAQAVPYVATKGAVTAMTKALALDESPYGVRVNCISPGNIWTPLWEELAALMPDPRATIREGMLAQPLGRMGQPAEVGAAAVFLASEANFCTGIELLVTGGAELGYGCKASRSTPVDAPDIPS [N31D],with no effect
2,MATGTRYAGKVVVVTWGGRGIGAGIVRAFVNSGARVVICDKDESGGRALEQELPGAVFILCDVTQEDDVKTLVSETIRRFGRLDCVVNNAGHHPPPQRPEETSAQGFRQLLELNLLGTYTLTKLALPYLRKSQGNVINISSLVGAIGQAQAVPYVATKGAVTAMTKALALDESPYGVRVNCISPGNIWTPLWEELAALMPDPRATIREGMLAQPLGRMGQPAEVGAAAVFLASEANFCTGIELLVTGGAELGYGCKASRSTPVDAPDIPS [G16W],with no effect

# Variants of: B4
# Conditions: with cah8_human CA8, P35219
# cah8_human CA8, P35219, sequence (P35219 whole entry): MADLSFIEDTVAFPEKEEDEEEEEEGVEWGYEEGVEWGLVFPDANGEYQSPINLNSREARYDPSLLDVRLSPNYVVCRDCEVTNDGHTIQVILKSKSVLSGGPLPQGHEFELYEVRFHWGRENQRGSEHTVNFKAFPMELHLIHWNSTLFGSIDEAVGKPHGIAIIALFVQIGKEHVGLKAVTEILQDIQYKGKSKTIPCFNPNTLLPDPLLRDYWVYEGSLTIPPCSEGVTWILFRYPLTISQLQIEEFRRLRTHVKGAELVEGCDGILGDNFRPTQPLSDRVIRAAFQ
row,Variant,effect of a mutation on the interaction
1,MATGTRYAGKVVVVTGGGRGIGAGIVRAFVDSGARVVICDKDESGGRALEQELPGAVFILCDVTQEDDVKTLVSETIRRFGRLDCVVNNAGHHPPPQRPEETSAQGFRQLLELNLLGTYTLTKLALPYLRKSQGNVINISSLVGAIGQAQAVPYVATKGAVTAMTKALALDESPYGVRVNCISPGNIWTPLWEELAALMPDPRATIREGMLAQPLGRMGQPAEVGAAAVFLASEANFCTGIELLVTGGAELGYGCKASRSTPVDAPDIPS [N31D],with no effect
2,MATGTRYAGKVVVVTWGGRGIGAGIVRAFVNSGARVVICDKDESGGRALEQELPGAVFILCDVTQEDDVKTLVSETIRRFGRLDCVVNNAGHHPPPQRPEETSAQGFRQLLELNLLGTYTLTKLALPYLRKSQGNVINISSLVGAIGQAQAVPYVATKGAVTAMTKALALDESPYGVRVNCISPGNIWTPLWEELAALMPDPRATIREGMLAQPLGRMGQPAEVGAAAVFLASEANFCTGIELLVTGGAELGYGCKASRSTPVDAPDIPS [G16W],with no effect
